Measured values taken from publication doi:10.1101/2023.04.27.538407.

How the values were obtained:
[1] = biological target: MYPT1-C2 peptide 35, R694 replaced by alanine (human); experiment: peptide or protein array
[2] = biological target: MYPT1-C2 peptide 35, S695 replaced by alanine (human); experiment: peptide or protein array
[3] = biological target: MYPT1-C2 peptide 35, R693 replaced by alanine (human); experiment: peptide or protein array
[4] = biological target: MYPT1 (endogenous, human platelets) (human (endogenous in platelets)); experiment: proximity ligation
MYPT1 (endogenous, human platelets) (human (endogenous in platelets)), sequence (O14974 whole entry): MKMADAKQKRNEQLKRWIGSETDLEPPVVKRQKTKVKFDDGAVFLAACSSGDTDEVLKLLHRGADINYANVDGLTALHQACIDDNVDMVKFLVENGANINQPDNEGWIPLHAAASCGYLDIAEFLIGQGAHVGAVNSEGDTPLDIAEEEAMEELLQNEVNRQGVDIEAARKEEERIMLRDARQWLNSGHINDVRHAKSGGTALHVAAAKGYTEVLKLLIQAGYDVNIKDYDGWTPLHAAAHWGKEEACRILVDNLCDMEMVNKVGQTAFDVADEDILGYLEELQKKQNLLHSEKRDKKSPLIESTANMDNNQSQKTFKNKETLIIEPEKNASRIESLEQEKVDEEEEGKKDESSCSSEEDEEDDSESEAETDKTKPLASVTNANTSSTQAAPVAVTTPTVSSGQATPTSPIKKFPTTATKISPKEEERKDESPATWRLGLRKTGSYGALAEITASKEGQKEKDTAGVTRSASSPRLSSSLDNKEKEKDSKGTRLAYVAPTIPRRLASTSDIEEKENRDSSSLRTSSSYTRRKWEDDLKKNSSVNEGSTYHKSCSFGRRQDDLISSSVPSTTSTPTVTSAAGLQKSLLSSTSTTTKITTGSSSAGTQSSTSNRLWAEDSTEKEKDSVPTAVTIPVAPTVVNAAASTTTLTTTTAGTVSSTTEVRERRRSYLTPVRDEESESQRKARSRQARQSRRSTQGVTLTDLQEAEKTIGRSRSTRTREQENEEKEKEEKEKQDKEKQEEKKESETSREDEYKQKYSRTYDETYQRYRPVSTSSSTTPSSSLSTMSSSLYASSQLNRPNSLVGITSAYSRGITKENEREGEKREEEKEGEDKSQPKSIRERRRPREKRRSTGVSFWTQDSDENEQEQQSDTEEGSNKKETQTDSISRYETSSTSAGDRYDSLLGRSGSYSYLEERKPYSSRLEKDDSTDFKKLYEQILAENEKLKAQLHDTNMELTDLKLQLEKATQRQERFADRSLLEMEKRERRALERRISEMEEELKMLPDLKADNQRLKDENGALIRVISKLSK

Substance	reduction of binding against the non-mutated peptide [1]	reduction of binding against the non-mutated peptide [2]	reduction of binding against the non-mutated peptide [3]	PLA dots per platelet (dots per platelet) [4]
His-tagged PKA-RIIβ (from UniProt P31323 1-418) (natural protein)	50%	50%	50%	–
His-tagged PKA-RIβ (from UniProt P31321 1-381) (natural protein)	50%	50%	50%	–
PKA-RI (endogenous, human platelets) (from UniProt P10644 1-381) (natural protein)	–	–	–	1.48
PKA-RIIα (endogenous, human platelets) (from UniProt P13861 1-404) (natural protein)	–	–	–	1.01
PKA-RIIβ (endogenous, human platelets) (from UniProt P31323 1-418) (natural protein)	–	–	–	0.97
